Measured values as given in the supplement of paper PMC5998384.

What was measured:
HeLa Kyoto [1] = assay: solubility change mitosis vs G1/S (difference of NP-40 vs SDS log2 ratios) (log2 ratio difference); higher = more soluble in mitosis
HeLa Kyoto [2] = assay: melting temperature (median over replicates), in situ; higher = more thermally stable
HeLa Kyoto [3] = assay: solubility in G1/S (NP-40 vs SDS abundance) (log2 ratio); higher = more soluble; conditions: cell cycle stage: G1/S
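Wherever melting temperature (median over replicates), in situ is given: HeLa Kyoto cells synchronized by double thymidine or nocodazole block, proteins quantified by TMT10plex mass spectrometry, three independent biological replicates.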
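Wherever solubility change mitosis vs G1/S (difference of NP-40 vs SDS log2 ratios) is given: synchronized HeLa Kyoto cells (double thymidine block for G1/S, nocodazole release for mitosis), protein amounts in NP-40 versus SDS lysates quantified by mass spectrometry, three biological replicates.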
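Wherever solubility in G1/S (NP-40 vs SDS abundance) is given: HeLa Kyoto cells arrested at G1/S by double thymidine block, proteins quantified by TMT10plex mass spectrometry in mild NP-40 versus SDS extracts, three biological replicates.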

Substance | solubility change mitosis (log2) (HeLa Kyoto [1]) | melting temperature (HeLa Kyoto [2]; cell cycle stage: G1/S) | melting temperature (HeLa Kyoto [2]; cell cycle stage: mitosis) | solubility in G1/S (log2) (HeLa Kyoto [3])
MGEFKVHRVRFFNYVPSGIRCVAYNNQSNRLAVSRTDGTVEIYNLSANYFQEKFFPGHESRATEALCWAEGQRLFSAGLNGEIMEYDLQALNIKYAMDAFGGPIWSMAASPSGSQLLVGCEDGSVKLFQITPDKIQFERNFDRQKSRILSLSWHPSGTHIAAGSIDYISVFDVKSGSAVHKMIVDRQYMGVSKRKCIVWGVAFLSDGTIISVDSAGKVQFWDSATGTLVKSHLIANADVQSIAVADQEDSFVVGTAEGTVFHFQLVPVTSNSSEKQWVRTKPFQHHTHDVRTVAHSPTALISGGTDTHLVFRPLMEKVEVKNYDAALRKITFPHRCLISCSKKRQLLLFQFAHHLELWRLGSTVATGKNGDTLPLSKNADHLLHLKTKGPENIICSCISPCGSWIAYSTVSRFFLYRLNYEHDNISLKRVSKMPAFLRSALQILFSEDSTKLFVASNQGALHIVQLSGGSFKHLHAFQPQSGTVEAMCLLAVSPDGNWLAASGTSAGVHVYNVKQLKLHCTVPAYNFPVTAMAIAPNTNNLVIAHSDQQVFEYSIPDKQYTDWSRTVQKQGFHHLWLQRDTPITHISFHPKRPMHILLHDAYMFCIIDKSLPLPNDKTLLYNPFPPTNESDVIRRRTAHAFKISKIYKPLLFMDLLDERTLVAVERPLDDIIAQLPPPIKKKKFGT [CIRH1A] | 0.349 | 54.3 °C | 52.3 °C | -1.13
MNSTEFTEDVEEVLKSITVKVETEAEDAALDCSVNSRTSEKHSVDSVLTALQDSSKRKQLVSDGLLDSVPGVKRRRLIPEALLAGMRNRENSSPCQGNGEQAGRGRSLGNVWPGEEEPCNDATTPSYKKPLYGISHKIMEKKNPPSGDLLNVYELFEKANASNSPSSLRLLNEPQKRDCGSTGAGTDNDPNIYFLIQKMFYMLNTLTSNMSQLHSKVDLLSLEVSRIKKQVSPTEMVAKFQPPPEYQLTAAELKQIVDQSLSGGDLACRLLVQLFPELFSDVDFSRGCSACGFAAKRKLESLHLQLIRNYVEVYYPSVKDTAVWQAECLPQLNDFFSRFWAQREMEDSQPSGQVASFFEAEQVDPGHFLDNKDQEEALSLDRSSTIASDHVVDTQDLTEFLDEASSPGEFAVFLLHRLFPELFDHRKLGEQYSCYGDGGKQELDPQRLQIIRNYTEIYFPDMQEEEAWLQQCAQRINDELEGLGLDAGSEGDPPRDDCYDSSSLPDDISVVKVEDSFEGERPGRRSKKIWLVPIDFDKLEIPQPDFEVPGADCLLSKEQLRSIYESSLSIGNFASRLLVHLFPELFTHENLRKQYNCSGSLGKKQLDPSRIKLIRHYVQLLYPRAKNDRVWTLEFVGKLDERCRRRDTEQRRSYQQQRKVHVPGPECRDLTSYAINPERFREEFEGPPLPPERSSKDFCKIPLDELVVPSPDFPVPSPYLLSDKEVREIVQQSLSVGNFAARLLVRLFPELFTAENLRLQYNHSGACNKKQLDPTRLRLIRHYVEAVYPVEKMEEVWHYECIPSIDERCRRPNRKKCDILKKAKKVEK [BEND3] | 0.152 |  | 48.1 °C | -0.105
MTNEEPLPKKVRLSETDFKVMARDELILRWKQYEAYVQALEGKYTDLNSNDVTGLRESEEKLKQQQQESARRENILVMRLATKEQEMQECTTQIQYLKQVQQPSVAQLRSTMVDPAINLFFLKMKGELEQTKDKLEQAQNELSAWKFTPDSQTGKKLMAKCRMLIQENQELGRQLSQGRIAQLEAELALQKKYSEELKSSQDELNDFIIQLDEEVEGMQSTILVLQQQLKETRQQLAQYQQQQSQASAPSTSRTTASEPVEQSEATSKDCSRLTNGPSNGSSSRQRTSGSGFHREGNTTEDDFPSSPGNGNKSSNSSEERTGRGGSGYVNQLSAGYESVDSPTGSENSLTHQSNDTDSSHDPQEEKAVSGKGNRTVGSRHVQNGLDSSVNVQGSVL [WTAP] | 0.772 | 48.9 °C | 50.3 °C | -0.0275
MEDPFEEADQPTTEPGMVLDSVEAGDTTPPTKRKSKFSGFGKIFKPWKWRKKKSSDKFKETSEVLERKISMRKPREELVKRGVLLEDPEQGGEDPGKPSDAMLKNGHTTPIGNARSSSPVQVEEEPVRLASLRKAIPEEDLKKRLGSTGSQPNSEAESVPENVPKPPLLPPKRPLSSSHEASEGQAKDATSSGGTARFIISTSITTAPAATTAATSLAKTVNLSVTPSPAPRTLPAAPASTNTTATPSLTHMVPAKQPPIPPPKPAHRNSNPVIAELSQAINSGTLLSKPSPPLPPKRGIPSTSVPTLESAAAITTKTPSDEREKSTCSMGSELLPMISPRSPSPPLPTHIPPEPPRTPPFPAKTFQVVPEIEFPPSLDLHQEIPQQEDQKKEVPKRILDQNFGEPHIPSRLPPLPLHIRIQQALTSPLPMTPILEGSHRAHSLLFENSDSFSEDSSTLGRTRSLPITIEMLKVPDDEEEEEQTCPSTFSEEMTPTSVIPKLPQCLREEEEKESDSDSEGPIQYRDEEDEDESYQSALANKVKRKDTLAMKLNHRPSEPELNLNSWPCKSKEEWNEIRHQIGNTLIRRLSQRPTPEELEQRNILQPKNEADRQAEKREIKRRLTRKLSQRPTVAELLARKILRFNEYVEVTDAQDYDRRADKPWTKLTPADKAAIRKELNEFKSSEMEVHEESKHFTRYHRP [PHACTR4] | 0.0651 | 54.3 °C | 54.9 °C | 0.401
MASKLLRAVILGPPGSGKGTVCQRIAQNFGLQHLSSGHFLRENIKASTEVGEMAKQYIEKSLLVPDHVITRLMMSELENRRGQHWLLDGFPRTLGQAEALDKICEVDLVISLNIPFETLKDRLSRRWIHPPSGRVYNLDFNPPHVHGIDDVTGEPLVQQEDDKPEAVAARLRQYKDVAKPVIELYKSRGVLHQFSGTETNKIWPYVYTLFSNKITPIQSKEAY [AK4] | 0.0928 |  | 51.3 °C | 0.384
ZNF318 | -0.0151 | 46.2 °C | 49.2 °C | -0.136
MPVKKKRKSPGVAAAVAEDGGLKKCKISSYCRSQPPARLISGEEHFSSKKCLAWFYEYAGPDEVVGPEGMEKFCEDIGVEPENIIMLVLAWKLEAESMGFFTKEEWLKGMTSLQCDCTEKLQNKFDFLRSQLNDISSFKNIYRYAFDFARDKDQRSLDIDTAKSMLALLLGRTWPLFSVFYQYLEQSKYRVMNKDQWYNVLEFSRTVHADLSNYDEDGAWPVLLDEFVEWQKVRQTS [DCUN1D5] | -0.0762 |  | 47.5 °C | 0.214
MAELGLNEHHQNEVINYMRFARSKRGLRLKTVDSCFQDLKESRLVEDTFTIDEVSEVLNGLQAVVHSEVESELINTAYTNVLLLRQLFAQAEKWYLKLQTDISELENRELLEQVAEFEKAEITSSNKKPILDVTKPKLAPLNEGGTAELLNKEILRLQEENEKLKSRLKTIEIQATNALDEKSKLEKALQDLQLDQGNQKDFIKAQDLSNLENTVAALKSEFQKTLNDKTENQKSLEENLATAKHDLLRVQEQLHMAEKELEKKFQQTAAYRNMKEILTKKNDQIKDLRKRLAQYEPED [LZTFL1] | 0.0593 | 53.2 °C | 52.7 °C | 0.713
MGLCKCPKRKVTNLFCFEHRVNVCEHCLVANHAKCIVQSYLQWLQDSDYNPNCRLCNIPLASRETTRLVCYDLFHWACLNERAAQLPRNTAPAGYQCPSCNGPIFPPTNLAGPVASALREKLATVNWARAGLGLPLIDEVVSPEPEPLNTSDFSDWSSFNASSTPGPEEVDSASAAPAFYSQAPRPPASPGRPEQHTVIHMGNPEPLTHAPRKVYDTRDDDRTPGLHGDCDDDKYRRRPALGWLARLLRSRAGSRKRPLTLLQRAGLLLLLGLLGFLALLALMSRLGRAAADSDPNLDPLMNPHIRVGPS [ZFPL1] | -0.0676 | 57.4 °C |  | 0.256
MEGGFGSDFGGSGSGKLDPGLIMEQVKVQIAVANAQELLQRMTDKCFRKCIGKPGGSLDNSEQKCIAMCMDRYMDAWNTVSRAYNSRLQRERANM [TIMM13] | 0.337 | 53.8 °C |  | -0.594
MAQGWAGFSEEELRRLKQTKDPFEPQRRLPAKKSRQQLQREKALVEQSQKLGLQDGSTSLLPEQLLSAPKQRVNVQKPPFSSPTLPSHFTLTSPVGDGQPQGIESQPKELGLENSHDGHNNVEILPPKPDCKLEKKKVELQEKSRWEVLQQEQRLMEEKNKRKKALLAKAIAERSKRTQAETMKLKRIQKELQALDDMVSADIGILRNRIDQASLDYSYARKRFDRAEAEYIAAKLDIQRKTEIKEQLTEHLCTIIQQNELRKAKKLEELMQQLDVEADEETLELEVEVERLLHEQEVESRRPVVRLERPFQPAEESVTLEFAKENRKCQEQAVSPKVDDQCGNSSSIPFLSPNCPNQEGNDISAALAT [GORAB] | 0.118 |  | 50.9 °C | 0.431
MSSPMPDCTSKCRSLKHALDVLSVVTKGSENQIKAFLSSHCYNAATIKDVFGRNALHLVSSCGKKGVLDWLIQKGVDLLVKDKESGWTALHRSIFYGHIDCVWSLLKHGVSLYIQDKEGLSALDLVMKDRPTHVVFKNTDPTDVYTWGDNTNFTLGHGSQNSKHHPELVDLFSRSGIYIKQVVLCKFHSVFLSQKGQVYTCGHGPGGRLGHGDEQTCLVPRLVEGLNGHNCSQVAAAKDHTVVLTEDGCVYTFGLNIFHQLGIIPPPSSCNVPRQIQAKYLKGRTIIGVAAGRFHTVLWTREAVYTMGLNGGQLGCLLDPNGEKCVTAPRQVSALHHKDIALSLVAASDGATVCVTTRGDIYLLADYQCKKMASKQLNLKKVLVSGGHMEYKVDPEHLKENGGQKICILAMDGAGRVFCWRSVNSSLKQCRWAYPRQVFISDIALNRNEILFVTQDGEGFRGRWFEEKRKSSEKKEILSNLHNSSSDVSYVSDINSVYERIRLEKLTFAHRAVSVSTDPSGCNFAILQSDPKTSLYEIPAVSSSSFFEEFGKLLREADEMDSIHDVTFQVGNRLFPAHKYILAVHSDFFQKLFLSDGNTSEFTDIYQKDEDSAGCHLFVVEKVHPDMFEYLLQFIYTDTCDFLTHGFKPRIHLNKNPEEYQGTLNSHLNKVNFHEDDNQKSAFEVYKSNQAQTVSERQKSKPKSCKKGKNIREDDPVRMLQTVAKKFDFSNLSSRLDGVRFENEKINVIAKNTGNKLKLSQKKCSFLCDVTMKSVDGKEFPCHKCVLCARLEYFHSMLSSSWIEASSCAALEMPIHSDILKVILDYLYTDEAVVIKESQNVDFICSVLVVADQLLITRLKEICEVALTEKLTLKNAAMLLEFAAMYSAKQLKLSCLQFIGLNMAALLEARSLDVLSDGVLKDLSEFYRKMIPAMDRRVITPYQDGPDISYLEVEDGDIFLKEEINMEQNHSETMFKKAKTKAKKKPRKRSDSSGGYNLSDIIQSPSSTGLLKSGKTNSVESLPELLTSDSEGSYAGVGSPRDLQSPDFTTGFHSDKIEAKVKPYVNGTSPVYSREDLKPWEKSPILKISAPQPIPSNRIDTTSSASWVAGSFSPVSPPVVDLRTIMEIEESRQKCGATPKSHLGKTVSHGVKLSQKQRKMIALTTKENNSGMNSMETVLFTPSKAPKPVNAWASSLHSVSSKSFRDFLLEEKKSVTSHSSGDHVKKVSFKGIENSQAPKIVRCSTHGTPGPEGNHISDLPLLDSPNPWLSSSVTAPSMVAPVTFASIVEEELQQEAALIRSREKPLALIQIEEHAIQDLLVFYEAFGNPEEFVIVERTPQGPLAVPMWNKHGC [IBTK] | 0.351 | 52.7 °C | 50.8 °C | -0.61
MGAQFSKTAAKGEAAAERPGEAAVASSPSKANGQENGHVKVNGDASPAAAESGAKEELQANGSAPAADKEEPAAAGSGAASPSAAEKGEPAAAAAPEAGASPVEKEAPAEGEAAEPGSPTAAEGEAASAASSTSSPKAEDGATPSPSNETPKKKKKRFSFKKSFKLSGFSFKKNKKEAGEGGEAEAPAAEGGKDEAAGGAAAAAAEAGAASGEQAAAPGEEAAAGEEGAAGGDPQEAKPQEAAVAPEKPPASDETKAAEEPSKVEEKKAEEAGASAAACEAPSAAGPGAPPEQEAAPAEEPAAAAASSACAAPSQEAQPECSPEAPPAEAAE [MARCKS] | 0.579 | 55.6 °C |  | -0.36
